Measured values as given in the Human Domainome abundance scans (Beltran et al. 2025).
± gives the uncertainty stated by the source.

B1: POU domain, class 2, transcription factor 3, residues 186 to 260; numbered along this chain, Q9UKI9 (parent)
chain: SDLEELEKFAKTFKQRRIKLGFTQGDVGLAMGKLYGNDFSQTTISRFEALNLSFKNMCKLKPLLEKWLNDAESSP

Variants of: B1
Experiment: abundance fitness (aPCA) (normalised: wild type 0, dead -1); higher = more abundant; growth selection in yeast, the domain comes from the species named
Conditions: Homo sapiens

Variant | abundance fitness
SDLEELEKFAKTFKQRRIKLGFTQGDVGLAMGKLYGNDFSQTTISRFEAYNLSFKNMCKLKPLLEKWLNDAESSP [L50Y] | -0.077 ± 0.07
SDLEELEKFAKTFKQRRIKLGFTQGDVGLAMGKLYGNDFSQTTISRFEAKNLSFKNMCKLKPLLEKWLNDAESSP [L50K] | -0.051 ± 0.048
SDLEELEKFAKTFKQRRIKLGFTQGDVGLAMGKLYGNDFSQTTISRFEAENLSFKNMCKLKPLLEKWLNDAESSP [L50E] | -0.165 ± 0.04
SDLEELEKFAKTFKQRRIKLGFTQGDVGLAMGKLYGNDFSQTTISRFEADNLSFKNMCKLKPLLEKWLNDAESSP [L50D] | -0.204 ± 0.082
SDLEELEKFAKTFKQRRIKLGFTQGDVGLAMGKLYGNDFSQTTISRFEAWNLSFKNMCKLKPLLEKWLNDAESSP [L50W] | -0.105 ± 0.044
SDLEELEKFAKTFKQRRIKLGFTQGDVGLAMGKLYGNDFSQTTISRFEAQNLSFKNMCKLKPLLEKWLNDAESSP [L50Q] | -0.055 ± 0.067
SDLEELEKFAKTFKQRRIKLGFTQGDVGLAMGKLYGNDFSQTTISRFEACNLSFKNMCKLKPLLEKWLNDAESSP [L50C] | -0.078 ± 0.069
SDLEELEKFAKTFKQRRIKLGFTQGDVGLAMGKLYGNDFSQTTISRFEATNLSFKNMCKLKPLLEKWLNDAESSP [L50T] | -0.003 ± 0.047
SDLEELEKFAKTFKQRRIKLGFTQGDVGLAMGKLYGNDFSQTTISRFEARNLSFKNMCKLKPLLEKWLNDAESSP [L50R] | 0.009 ± 0.031
SDLEELEKFAKTFKQRRIKLGFTQGDVGLAMGKLYGNDFSQTTISRFEAGNLSFKNMCKLKPLLEKWLNDAESSP [L50G] | 0.031 ± 0.027
SDLEELEKFAKTFKQRRIKLGFTQGDVGLAMGKLYGNDFSQTTISRFEAANLSFKNMCKLKPLLEKWLNDAESSP [L50A] | 0.017 ± 0.033
SDLEELEKFAKTFKQRRIKLGFTQGDVGLAMGKLYGNDFSQTTISRFEAHNLSFKNMCKLKPLLEKWLNDAESSP [L50H] | 0.142 ± 0.091
SDLEELEKFAKTFKQRRIKLGFTQGDVGLAMGKLYGNDFSQTTISRFEANNLSFKNMCKLKPLLEKWLNDAESSP [L50N] | 0.087 ± 0.07
SDLEELEKFAKTFKQRRIKLGFTQGDVGLAMGKLYGNDFSQTTISRFEAMNLSFKNMCKLKPLLEKWLNDAESSP [L50M] | -0.02 ± 0.045
SDLEELEKFAKTFKQRRIKLGFTQGDVGLAMGKLYGNDFSQTTISRFEASNLSFKNMCKLKPLLEKWLNDAESSP [L50S] | 0.031 ± 0.041
SDLEELEKFAKTFKQRRIKLGFTQGDVGLAMGKLYGNDFSQTTISRFEALNLHFKNMCKLKPLLEKWLNDAESSP [S53H] | -0.205 ± 0.094
SDLEELEKFAKTFKQRRIKLGFTQGDVGLAMGKLYGNDFSQTTISRFEALNLDFKNMCKLKPLLEKWLNDAESSP [S53D] | -0.04 ± 0.049
SDLEELEKFAKTFKQRRIKLGFTQGDVGLAMGKLYGNDFSQTTISRFEALNLKFKNMCKLKPLLEKWLNDAESSP [S53K] | -0.091 ± 0.045
SDLEELEKFAKTFKQRRIKLGFTQGDVGLAMGKLYGNDFSQTTISRFEALNLFFKNMCKLKPLLEKWLNDAESSP [S53F] | -0.66 ± 0.24
SDLEELEKFAKTFKQRRIKLGFTQGDVGLAMGKLYGNDFSQTTISRFEALNLEFKNMCKLKPLLEKWLNDAESSP [S53E] | -0.061 ± 0.041
SDLEELEKFAKTFKQRRIKLGFTQGDVGLAMGKLYGNDFSQTTISRFEALNLLFKNMCKLKPLLEKWLNDAESSP [S53L] | -0.768 ± 0.066
SDLEELEKFAKTFKQRRIKLGFTQGDVGLAMGKLYGNDFSQTTISRFEALNLGFKNMCKLKPLLEKWLNDAESSP [S53G] | 0.015 ± 0.026
SDLEELEKFAKTFKQRRIKLGFTQGDVGLAMGKLYGNDFSQTTISRFEALNLIFKNMCKLKPLLEKWLNDAESSP [S53I] | -0.556 ± 0.18
SDLEELEKFAKTFKQRRIKLGFTQGDVGLAMGKLYGNDFSQTTISRFEALNASFKNMCKLKPLLEKWLNDAESSP [L52A] | -0.148 ± 0.039
SDLEELEKFAKTFKQRRIKLGFTQGDVGLAMGKLYGNDFSQTTISRFEALNGSFKNMCKLKPLLEKWLNDAESSP [L52G] | -0.149 ± 0.027

Variant | abundance fitness
SDLEELEKFAKTFKQRRIKLGFTQGDVGLAMGKLYGNDFSQTTISRFEALNCSFKNMCKLKPLLEKWLNDAESSP [L52C] | -0.107 ± 0.062
SDLEELEKFAKTFKQRRIKLGFTQGDVGLAMGKLYGNDFSQTTISRFEALNISFKNMCKLKPLLEKWLNDAESSP [L52I] | -0.183 ± 0.094
SDLEELEKFAKTFKQRRIKLGFTQGDVGLAMGKLYGNDFSQTTISRFEALNKSFKNMCKLKPLLEKWLNDAESSP [L52K] | -0.618 ± 0.084
SDLEELEKFAKTFKQRRIKLGFTQGDVGLAMGKLYGNDFSQTTISRFEALNPSFKNMCKLKPLLEKWLNDAESSP [L52P] | -0.972 ± 0.19
SDLEELEKFAKTFKQRRIKLGFTQGDVGLAMGKLYGNDFSQTTISRFEALNESFKNMCKLKPLLEKWLNDAESSP [L52E] | -0.131 ± 0.044
SDLEELEKFAKTFKQRRIKLGFTQGDVGLAMGKLYGNDFSQTTISRFEALNDSFKNMCKLKPLLEKWLNDAESSP [L52D] | -0.021 ± 0.11
SDLEELEKFAKTFKQRRIKLGFTQGDVGLAMGKLYGNDFSQTTISRFEALNNSFKNMCKLKPLLEKWLNDAESSP [L52N] | -0.444 ± 0.1
SDLEELEKFAKTFKQRRIKLGFTQGDVGLAMGKLYGNDFSQTTISRFEALNWSFKNMCKLKPLLEKWLNDAESSP [L52W] | -0.201 ± 0.034
SDLEELEKFAKTFKQRRIKLGFTQGDVGLAMGKLYGNDFSQTTISRFEALNMSFKNMCKLKPLLEKWLNDAESSP [L52M] | -0.004 ± 0.044
SDLEELEKFAKTFKQRRIKLGFTQGDVGLAMGKLYGNDFSQTTISRFEALNRSFKNMCKLKPLLEKWLNDAESSP [L52R] | -0.717 ± 0.048
SDLEELEKFAKTFKQRRIKLGFTQGDVGLAMGKLYGNDFSQTTISRFEALNFSFKNMCKLKPLLEKWLNDAESSP [L52F] | -0.231 ± 0.08
SDLEELEKFAKTFKQRRIKLGFTQGDVGLAMGKLYGNDFSQTTISRFEALNSSFKNMCKLKPLLEKWLNDAESSP [L52S] | -0.25 ± 0.043
SDLEELEKFAKTFKQRRIKLGFTQGDVGLAMGKLYGNDFSQTTISRFWALNLSFKNMCKLKPLLEKWLNDAESSP [E48W] | -1.17 ± 0.38
SDLEELEKFAKTFKQRRIKLGFTQGDVGLAMGKLYGNDFSQTTISRFLALNLSFKNMCKLKPLLEKWLNDAESSP [E48L] | -0.836 ± 0.08
SDLEELEKFAKTFKQRRIKLGFTQGDVGLAMGKLYGNDFSQTTISRFNALNLSFKNMCKLKPLLEKWLNDAESSP [E48N] | -0.871 ± 0.18
SDLEELEKFAKTFKQRRIKLGFTQGDVGLAMGKLYGNDFSQTTISRFSALNLSFKNMCKLKPLLEKWLNDAESSP [E48S] | -0.912 ± 0.086
SDLEELEKFAKTFKQRRIKLGFTQGDVGLAMGKLYGNDFSQTTISRFTALNLSFKNMCKLKPLLEKWLNDAESSP [E48T] | -1.25 ± 0.21
SDLEELEKFAKTFKQRRIKLGFTQGDVGLAMGKLYGNDFSQTTISRFMALNLSFKNMCKLKPLLEKWLNDAESSP [E48M] | -0.798 ± 0.1
SDLEELEKFAKTFKQRRIKLGFTQGDVGLAMGKLYGNDFSQTTISRFPALNLSFKNMCKLKPLLEKWLNDAESSP [E48P] | -0.994 ± 0.12
SDLEELEKFAKTFKQRRIKLGFTQGDVGLAMGKLYGNDFSQTTISRFVALNLSFKNMCKLKPLLEKWLNDAESSP [E48V] | -1.04 ± 0.13
SDLEELEKFAKTFKQRRIKLGFTQGDVGLAMGKLYGNDFSQTTISRFQALNLSFKNMCKLKPLLEKWLNDAESSP [E48Q] | -1.16 ± 0.19
SDLEELEKFAKTFKQRRIKLGFTQGDVGLAMGKLYGNDFSQTTISRFERLNLSFKNMCKLKPLLEKWLNDAESSP [A49R] | -0.036 ± 0.13
SDLEELEKFAKTFKQRRIKLGFTQGDVGLAMGKLYGNDFSQTTISRFEHLNLSFKNMCKLKPLLEKWLNDAESSP [A49H] | 0.014 ± 0.15
SDLEELEKFAKTFKQRRIKLGFTQGDVGLAMGKLYGNDFSQTTISRFETLNLSFKNMCKLKPLLEKWLNDAESSP [A49T] | -0.253 ± 0.25
SDLEELEKFAKTFKQRRIKLGFTQGDVGLAMGKLYGNDFSQTTISRFELLNLSFKNMCKLKPLLEKWLNDAESSP [A49L] | -0.197 ± 0.12

Variant | abundance fitness
SDLEELEKFAKTFKQRRIKLGFTQGDVGLAMGKLYGNDFSQTTISRFEFLNLSFKNMCKLKPLLEKWLNDAESSP [A49F] | -0.274 ± 0.29
SDLEELEKFAKTFKQRRIKLGFTQGDVGLAMGKLYGNDFSQTTISRFEPLNLSFKNMCKLKPLLEKWLNDAESSP [A49P] | -0.384 ± 0.21
SDLEELEKFAKTFKQRRIKLGFTQGDVGLAMGKLYGNDFSQTTISRFEMLNLSFKNMCKLKPLLEKWLNDAESSP [A49M] | -0.201 ± 0.11
SDLEELEKFAKTFKQRRIKLGFTQGDVGLAMGKLYGNDFSQTTISRFEKLNLSFKNMCKLKPLLEKWLNDAESSP [A49K] | -0.315 ± 0.4
SDLEELEKFAKTFKQRRIKLGFTQGDVGLAMGKLYGNDFSQTTISRFEVLNLSFKNMCKLKPLLEKWLNDAESSP [A49V] | 0.011 ± 0.16
SDLEELEKFAKTFKQRRIKLGFTQGDVGLAMGKLYGNDFSQTTISRFEQLNLSFKNMCKLKPLLEKWLNDAESSP [A49Q] | 0.133 ± 0.27
SDLEELEKFAKTFKQRRIKLGFTQGDVGLAMGKLYGNDFSQTTISRFESLNLSFKNMCKLKPLLEKWLNDAESSP [A49S] | 0.089 ± 0.17
SDLEELEKFAKTFKQRRIKLGFTQGDVGLAMGKLYGNDFSQTTISRFEALILSFKNMCKLKPLLEKWLNDAESSP [N51I] | -0.151 ± 0.068
SDLEELEKFAKTFKQRRIKLGFTQGDVGLAMGKLYGNDFSQTTISRFEALDLSFKNMCKLKPLLEKWLNDAESSP [N51D] | -0.008 ± 0.089
SDLEELEKFAKTFKQRRIKLGFTQGDVGLAMGKLYGNDFSQTTISRFEALHLSFKNMCKLKPLLEKWLNDAESSP [N51H] | 0.107 ± 0.098
SDLEELEKFAKTFKQRRIKLGFTQGDVGLAMGKLYGNDFSQTTISRFEALYLSFKNMCKLKPLLEKWLNDAESSP [N51Y] | -0.188 ± 0.1
SDLEELEKFAKTFKQRRIKLGFTQGDVGLAMGKLYGNDFSQTTISRFEALSLSFKNMCKLKPLLEKWLNDAESSP [N51S] | 0.043 ± 0.034
SDLEELEKFAKTFKQRRIKLGFTQGDVGLAMGKLYGNDFSQTTISRFEALELSFKNMCKLKPLLEKWLNDAESSP [N51E] | -0.078 ± 0.048
SDLEELEKFAKTFKQRRIKLGFTQGDVGLAMGKLYGNDFSQTTISRFEALWLSFKNMCKLKPLLEKWLNDAESSP [N51W] | -0.282 ± 0.044
SDLEELEKFAKTFKQRRIKLGFTQGDVGLAMGKLYGNDFSQTTISRFEALPLSFKNMCKLKPLLEKWLNDAESSP [N51P] | -0.844 ± 0.2
SDLEELEKFAKTFKQRRIKLGFTQGDVGLAMGKLYGNDFSQTTISRFEALKLSFKNMCKLKPLLEKWLNDAESSP [N51K] | 0.069 ± 0.051
SDLEELEKFAKTFKQRRIKLGFTQGDVGLAMGKLYGNDFSQTTISRFEALVLSFKNMCKLKPLLEKWLNDAESSP [N51V] | -0.1 ± 0.039
SDLEELEKFAKTFKQRRIKLGFTQGDVGLAMGKLYGNDFSQTTISRFEALQLSFKNMCKLKPLLEKWLNDAESSP [N51Q] | -0.011 ± 0.056
SDLEELEKFAKTFKQRRIKLGFTQGDVGLAMGKLYGNDFSQTTISRFEALGLSFKNMCKLKPLLEKWLNDAESSP [N51G] | -0.01 ± 0.031
SDLEELEKFAKTFKQRRIKLGFTQGDVGLAMGKLYGNDFSQTTISRFEALCLSFKNMCKLKPLLEKWLNDAESSP [N51C] | -0.076 ± 0.058
SDLEELEKFAKTFKQRRIKLGFTQGDVGLAMGKLYGNDFSQTTISRFEALMLSFKNMCKLKPLLEKWLNDAESSP [N51M] | -0.022 ± 0.057
SDLEELEKFAKTFKQRRIKLGFTQGDVGLAMGKLYGNDFSQTTISRFEALTLSFKNMCKLKPLLEKWLNDAESSP [N51T] | 0.007 ± 0.05
SDLEELEKFAKTFKQRRIKLGFTQGDVGLAMGKLYGNDFSQTTISRFEALLLSFKNMCKLKPLLEKWLNDAESSP [N51L] | -0.035 ± 0.044
